Measured values from US20210261676A1 (YINNUOLAI BIOTECH, published 2021).

T1: B-cell activating factor (BAFF) receptor (human, UniProt Q96RJ3 7-71, limits assumed)
T1 construct: also called TNFRSF13C; BLyS receptor 3
T1 sequence: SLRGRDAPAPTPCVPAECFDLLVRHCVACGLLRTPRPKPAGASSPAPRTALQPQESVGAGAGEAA


Target: T1, B-cell activating factor (BAFF) receptor
Experiment: method not stated; column heads (Kdis, Full X^2, Full R^2) look like bio-layer interferometry output

Row | Kd [nM] | koff [s⁻¹] | kon [M⁻¹ s⁻¹] | Binder
1 | 3.4 | 0.0034 | 990000 | H90-5 anti-BAFF receptor monoclonal antibody (antibody, V domains shown, Humanized form of C90; also called H90-5 mAb) VH: EVQLQESGPGLVKPSQTLSLTCTVSGDSITSGYWNWIRQHPGKGLEYIGYISYSGSTYYNPSLKSRVTISRDTSKNQYSLKLSSVTAADTAVYYCASPNYPFYAMDYWGQGTLVTVSS VL: DIVLTQSPATLSLSPGERATLSCRASESVDNYGISFMNWFQQKPGQAPRLLIYAASNRATGIPARFSGSGSGTDFTLTISSLEPEDFAVYYCQQSKEVPWTFGGGTKVEIKR
2 | 0.95 | 0.00082 | 860000 | H90-11 anti-BAFF receptor monoclonal antibody (antibody, V domains shown, same heavy chain variable region as H90-5; also called H90-11 mAb) VH: EVQLQESGPGLVKPSQTLSLTCTVSGDSITSGYWNWIRQHPGKGLEYIGYISYSGSTYYNPSLKSRVTISRDTSKNQYSLKLSSVTAADTAVYYCASPNYPFYAMDYWGQGTLVTVSS VL: DIQMTQSPDSLAVSLGERATINCKSSQSVLYSSNNKNYLAWYQQKPGQPPKLLIYWASIRESGVPDRFSGSGSGTDFTLTISSLQPEDFATYYCQQSYSTPWTFGQGTKLEIKR
